Reference: the supplement of paper PMC9233669
Fewer inactive variants are shown than the library holds.

Tests used:
[1] = test system: biotinyl-Phe-oxazolone; assay: self-aminoacylation, catalytic enhancement (BFO) (fold over background); higher = more active; k-Seq, kA / k0A0; sequences stand for … in GGGAAUGGAUCCACAUCUACGAAUUC…UUCACUGCAGACUUGACGAAGCUG
Summary of the method: (§1)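 Working in 50 μL HEPES/NaCl/KCl/MgCl2/CaCl2 buffer with 5% acetonitrile at pH 6.9–7.0, mutagenized RNA pools (0.43 μM; 21-nt variable region) were reacted with 2–1250 μM of each biotinyl-aminoacyl-oxazolone for 90 minutes at room temperature. Streptavidin capture followed, with quantification by triplicate qPCR and Illumina sequencing. Catalytic enhancement is reported as median kA over the uncatalyzed rate, the low-activity peak of a bimodal Gaussian fit to the data.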

[2] = test system: biotinyl-Ile-oxazolone; assay: self-aminoacylation, catalytic enhancement (BIO) (fold over background); higher = more active; k-Seq, kA / k0A0; sequences stand for … in GGGAAUGGAUCCACAUCUACGAAUUC…UUCACUGCAGACUUGACGAAGCUG
Summary of the method: as §1

[3] = test system: biotinyl-Met-oxazolone; assay: self-aminoacylation, catalytic enhancement (BMO) (fold over background); higher = more active; k-Seq, kA / k0A0; sequences stand for … in GGGAAUGGAUCCACAUCUACGAAUUC…UUCACUGCAGACUUGACGAAGCUG
Summary of the method: as §1

[4] = test system: biotinyl-Val-oxazolone; assay: self-aminoacylation, catalytic enhancement (BVO) (fold over background); higher = more active; k-Seq, kA / k0A0; sequences stand for … in GGGAAUGGAUCCACAUCUACGAAUUC…UUCACUGCAGACUUGACGAAGCUG
Summary of the method: as §1

[5] = test system: biotinyl-Leu-oxazolone; assay: self-aminoacylation, catalytic enhancement (BLO) (fold over background); higher = more active; k-Seq, kA / k0A0; sequences stand for … in GGGAAUGGAUCCACAUCUACGAAUUC…UUCACUGCAGACUUGACGAAGCUG
Summary of the method: as §1

[6] = test system: biotinyl-Trp-oxazolone; assay: self-aminoacylation, catalytic enhancement (BWO) (fold over background); higher = more active; k-Seq, kA / k0A0; sequences stand for … in GGGAAUGGAUCCACAUCUACGAAUUC…UUCACUGCAGACUUGACGAAGCUG
Summary of the method: as §1

Sequence | self-aminoacylation [1] | self-aminoacylation [2] | self-aminoacylation [3] | self-aminoacylation [4] | self-aminoacylation [5] | self-aminoacylation [6]
CUACUCCAAACUAUCGGUCUG [Fam1A.1 aminoacylation ribozyme variant] | 0.747 | 0.926 | 0.806 | 1.07 | 0.872 | 0.822
CUACUCCGAACAAUCGGUCUG [Fam1A.1 aminoacylation ribozyme variant] | 0.826 | 0.847 | 0.668 | 0.812 | 0.889 | 0.806
CUACUGCAAACAACCGGUCUG [Fam1A.1 aminoacylation ribozyme variant] | 2.5 | 1.02 | 0.762 | 0.836 | 0.953 | 0.804
CUACUGCAAACAAUCGUUCUG [Fam1A.1 aminoacylation ribozyme variant] | 0.732 | 0.702 | 0.818 | 0.735 | 0.647 | 0.574
CUACUGCAAACAAUUGGUCUG [Fam1A.1 aminoacylation ribozyme variant] | 1.18 | 1.19 | 0.966 | 1.07 | 0.823 | 0.956
CUACUGCAAACUAUCGGUCUG [Fam1A.1 aminoacylation ribozyme variant] | 1.14 | 1.02 | 0.824 | 1.12 | 1.17 | 1.18
CUACUGCAGACAAUCGGUCUG [Fam1A.1 aminoacylation ribozyme variant] | 0.577 | 0.897 | 1.06 | 1.04 | 1.07 | 0.497
CUACUGUAAACAAUCGGUCUG [Fam1A.1 aminoacylation ribozyme variant] | 0.659 | 0.897 | 0.887 | 0.741 | 0.863 | 0.53
CUACUUAAAACAAUCGCUCUG [Fam1A.1 aminoacylation ribozyme variant] | 0.52 | 0.623 | 0.706 | 0.727 | 0.481 | 0.462
CUACUUAAAACAAUCGGUCGG [Fam1A.1 aminoacylation ribozyme variant] | 0.727 | 0.878 | 0.786 | 0.74 | 0.857 | 0.59
CUACUUAAAACAAUCGUUCUG [Fam1A.1 aminoacylation ribozyme variant] | 0.579 | 0.568 | 0.592 | 0.57 | 0.432 | 0.503
CUACUUCAAAAAAUCAGUCUG [Fam1A.1 aminoacylation ribozyme variant] | 5.75 | 0.841 | 0.744 | 0.754 | 0.804 | 2.61
CUACUUCAAAAAAUCGAUCUG [Fam1A.1 aminoacylation ribozyme variant] | 1.46 | 0.663 | 0.601 | 0.585 | 0.6 | 0.604
CUACUUCAAAAAAUCGGACUG [Fam1A.1 aminoacylation ribozyme variant] | 3.47 | 0.922 | 0.652 | 0.539 | 0.733 | 2.3
CUACUUCAAAAAAUCGGUGUG [Fam1A.1 aminoacylation ribozyme variant] | 1.89 | 0.889 | 0.946 | 0.814 | 1.31 | 1.53
CUACUUCAAAAAGUCGGUCUG [Fam1A.1 aminoacylation ribozyme variant] | 0.598 | 0.876 | 0.856 | 0.773 | 0.779 | 0.579
CUACUUCAAAAUAUCGGUCUG [Fam1A.1 aminoacylation ribozyme variant] | 1.01 | 1.01 | 0.936 | 0.911 | 0.798 | 0.973
CUACUUCAAACAAACGGCCUG [Fam1A.1 aminoacylation ribozyme variant] | 0.719 | 1.38 | 1.01 | 1.13 | 1.18 | 0.967
CUACUUCAAACAAACGGUCUA [Fam1A.1 aminoacylation ribozyme variant] | 0.773 | 0.751 | 0.665 | 0.742 | 0.696 | 0.537
CUACUUCAAACAAACGGUCUG [Fam1A.1 aminoacylation ribozyme variant] | 0.894 | 0.77 | 0.664 | 0.812 | 0.666 | 0.615
CUACUUCAAACAACCAGUCUG [Fam1A.1 aminoacylation ribozyme variant] | 0.953 | 1.02 | 0.899 | 0.797 | 0.668 | 0.573
CUACUUCAAACAACCGCUCUG [Fam1A.1 aminoacylation ribozyme variant] | 0.457 | 0.776 | 0.774 | 0.769 | 0.547 | 0.619
CUACUUCAAACAACCGGCCUG [Fam1A.1 aminoacylation ribozyme variant] | 2.27 | 1.8 | 2.4 | 1.86 | 1.51 | 1.49
CUACUUCAAACAACCGGUCUG [Fam1A.1 aminoacylation ribozyme variant] | 1.07 | 0.874 | 0.729 | 0.845 | 0.791 | 0.844
CUACUUCAAACAAGCGGACUG [Fam1A.1 aminoacylation ribozyme variant] | 0.818 | 0.91 | 0.81 | 0.896 | 0.631 | 0.644
CUACUUCAAACAAGCGGCCUG [Fam1A.1 aminoacylation ribozyme variant] | 0.592 | 2.41 | 1.32 | 1.83 | 2.08 | 1.68

Sequence | self-aminoacylation [1] | self-aminoacylation [2] | self-aminoacylation [3] | self-aminoacylation [4] | self-aminoacylation [5] | self-aminoacylation [6]
CUACUUCAAACAAGCGUUCUG [Fam1A.1 aminoacylation ribozyme variant] | 0.391 | 0.481 | 0.499 | 0.499 | 0.517 | 0.503
CUACUUCAAACAAGCUGUCUG [Fam1A.1 aminoacylation ribozyme variant] | 0.642 | 0.733 | 0.7 | 0.734 | 0.795 | 0.356
CUACUUCAAACAAUAGGUGUG [Fam1A.1 aminoacylation ribozyme variant] | 1.38 | 1.07 | 1.22 | 0.975 | 1.25 | 0.781
CUACUUCAAACAAUCAGGCUG [Fam1A.1 aminoacylation ribozyme variant] | 2.7 | 0.911 | 0.549 | 0.723 | 0.78 | 1.33
CUACUUCAAACAAUCAGUAUG [Fam1A.1 aminoacylation ribozyme variant] | 6.02 | 0.847 | 0.891 | 0.819 | 0.777 | 2.46
CUACUUCAAACAAUCAGUCUC [Fam1A.1 aminoacylation ribozyme variant] | 25.9 | 0.833 | 0.723 | 0.904 | 0.872 | 8
CUACUUCAAACAAUCAGUCUU [Fam1A.1 aminoacylation ribozyme variant] | 13.2 | 0.938 | 0.854 | 0.942 | 0.935 | 4.96
CUACUUCAAACAAUCCGUCAG [Fam1A.1 aminoacylation ribozyme variant] | 0.797 | 0.951 | 0.684 | 0.934 | 0.613 | 0.643
CUACUUCAAACAAUCCGUCCG [Fam1A.1 aminoacylation ribozyme variant] | 0.694 | 0.825 | 0.708 | 0.903 | 0.927 | 0.751
CUACUUCAAACAAUCCGUCUC [Fam1A.1 aminoacylation ribozyme variant] | 1.18 | 0.634 | 0.471 | 0.751 | 0.44 | 0.858
CUACUUCAAACAAUCCGUGUG [Fam1A.1 aminoacylation ribozyme variant] | 7.45 | 1.99 | 2.86 | 1.88 | 3.84 | 2.52
CUACUUCAAACAAUCGCUCUA [Fam1A.1 aminoacylation ribozyme variant] | 0.778 | 0.862 | 1.05 | 0.948 | 0.642 | 0.736
CUACUUCAAACAAUCGCUCUC [Fam1A.1 aminoacylation ribozyme variant] | 2.18 | 0.621 | 0.384 | 1.02 | 0.515 | 1.2
CUACUUCAAACAAUCGCUCUU [Fam1A.1 aminoacylation ribozyme variant] | 0.851 | 0.938 | 0.772 | 0.856 | 0.539 | 0.632
CUACUUCAAACAAUCGGCCUG [Fam1A.1 aminoacylation ribozyme variant] | 85.3 | 1.69 | 1.87 | 1.78 | 2.86 | 48.1
CUACUUCAAACAAUCGGGAUG [Fam1A.1 aminoacylation ribozyme variant] | 5.85 | 0.904 | 0.844 | 1.02 | 1.19 | 4.46
CUACUUCAAACAAUCGGGCCG [Fam1A.1 aminoacylation ribozyme variant] | 1.76 | 1.53 | 1.19 | 0.974 | 1.32 | 1.22
CUACUUCAAACAAUCGGGCUC [Fam1A.1 aminoacylation ribozyme variant] | 5.16 | 1.01 | 1.08 | 1.17 | 0.971 | 2.48
CUACUUCAAACAAUCGGGCUU [Fam1A.1 aminoacylation ribozyme variant] | 1.14 | 1.55 | 1.12 | 1.32 | 0.955 | 1.3
CUACUUCAAACAAUCGGGGUG [Fam1A.1 aminoacylation ribozyme variant] | 2.9 | 3.04 | 3.77 | 2.35 | 4.32 | 3.36
CUACUUCAAACAAUCGGUCAA [Fam1A.1 aminoacylation ribozyme variant] | 6.72 | 0.846 | 0.695 | 0.996 | 0.712 | 2.24
CUACUUCAAACAAUCGGUCCA [Fam1A.1 aminoacylation ribozyme variant] | 1.79 | 0.753 | 0.654 | 0.757 | 0.633 | 0.907
CUACUUCAAACAAUCGGUGAG [Fam1A.1 aminoacylation ribozyme variant] | 1.5 | 0.901 | 1.19 | 1.03 | 1.05 | 0.907
CUACUUCAAACAAUCGUACUG [Fam1A.1 aminoacylation ribozyme variant] | 1.35 | 0.519 | 0.419 | 0.533 | 0.389 | 0.573
CUACUUCAAACAAUCGUCCUG [Fam1A.1 aminoacylation ribozyme variant] | 0.798 | 0.562 | 0.407 | 0.791 | 0.394 | 0.491
